Luciferase activity data for one substance are collected here from US5547932.

A value given as a limit tells only on which side of the number the result lay.

The target of the experiment is transferrin receptor on NIH3T3 cells and on C2C12 and G8 myoblasts and myotubes (Mus musculus (Mouse)) (UniProt Q62351).

As to “human transferrin-polylysine conjugate (from UniProt P02787) (ligand)”, the luciferase activity was less than 1 log.
